Test results as given in the nanobody polyreactivity screen of Harvey et al. (2022).

Assay: yeast display, Sf9 membrane polyspecificity reagent, FACS + sequencing; frameworks hold sequencing errors
How it was run: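 Using colony PCR, genes from sorted yeast display clones were amplified, then sequenced on MiSeq at 2 × 250 and filtered by CDR length. The clones had been stained with 10% biotinylated, detergent-solubilized Sf9 membrane reagent for 1 hour at 4 °C and sorted by FACS into low and high (top ~1%) gates on anti-HA and streptavidin fluorescence. Polyreactivity labels come from the gate of origin.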
In the case of “QVQLVESGGGLVQAGGSLRLSCAASGRTFVVYAMGWYGQAPGKERELVAGITTRVGSTYYADSVKGRFTISRDNAKNTVYLQMNSLKPEDTAVYYCAARGSRYVGRVRYDYWGQGTQVTVSS”, the “polyreactivity (PSR sort gate)” value is reported as “high polyreactivity”.
With “QVQLVESGGGLVQAGGSLRLSCAASGRTFVVYAMGWYRQAPGKERELVAAISGRGGRTYYADSVKGRFTISRDNAKNTVYLQMNSLKPEETAVYYCATRSSVPKRFTRYGYWGHGTQVTVSS” the “polyreactivity (PSR sort gate)” value was “high polyreactivity”.
In the case of “QVQLVESGGGLVQAGGSLRLSCAASGRTFVVYAMGWYRQAPGKERELVAVISFTGDSTFYADSVKGRFTISRDNAKNTVYLQMNSLKPEDTAVYYCAADLDWSPHFGLPYDYWGQGTQVTVSS”, the “polyreactivity (PSR sort gate)” value is reported as “low polyreactivity”.
In the case of “QVQLVESGGGLVQAGGSLRLSCAASGRTFVVYAMGWYRQAPGKERELVAVISFTRDSTFYADSVKGRFTISRDNAKNTVYLQMNSLKPEDTAVYYCAADFRRVFSKYSYYLYFEFDYWGQGTQVTVSS”, the “polyreactivity (PSR sort gate)” value is reported as “low polyreactivity”.
In the case of “QVQLVESGGGLVQAGGSLRLSCAASGRTFVVYTMGWYRQAPGKERELVAAISWRGGTTYYADSVKGRFTISRDNAKNTVYLQMNSLKPEDTAVYYCAARVVYYYRERYYWGQGTQVTVSS”, the “polyreactivity (PSR sort gate)” value is reported as “high polyreactivity”.
In the case of “QVQLVESGGGLVQAGGSLRLSCAASGRTFVWNVMGWYRKAPGKEREFVAAISGGSTYYADSVKGRFTISRDNAKNTVYLQMNRLKPEDTAVNYCAAASKLHPRYEYWGQGTQVTVSS”, the “polyreactivity (PSR sort gate)” value is reported as “low polyreactivity”.
With “QVQLVESGGGLVQAGGSLRLSCAASGRTFVYNAKGWYRQAPGKEREVVAGITGSGDSTYYADSVKGRFTISRDNAKNTVYLQMNSLKPEDTAVYYCNQLVEEDYWGQGTQVTVSS” the “polyreactivity (PSR sort gate)” value was “low polyreactivity”.
With “QVQLVESGGGLVQAGGSLRLSCAASGRTFVYNAMGWYRQAPGKERELVAAIDGGGDRTYYADSVKGRFTISRDNAKNTVYLQMNSLKPEDTAVYYCARDPVVTYYYSYPEGDYWGQGTQVTVSS” the “polyreactivity (PSR sort gate)” value was “low polyreactivity”.
In the case of “QVQLVESGGGLVQAGGSLRLSCAASGRTFVYNAMGWYRQAPGKERELVAAIRFSGGRTYYADSVKGRFTISRDNAKNTVYLQMNSLKPEDTAVYYCAVTGELTLYTWRSFEYYYWGQGTQVTVSS”, the “polyreactivity (PSR sort gate)” value is reported as “low polyreactivity”.
For “QVQLVESGGGLVQAGGSLRLSCAASGRTFVYNAMGWYRQAPGKERELVAAISSSGGSTRYADSVKGRFTISRDNAKNTVYLQMNSLKPEDTAVYYCNRLRYSNRYDTWGQGTQVTVSS”, the “polyreactivity (PSR sort gate)” value was “high polyreactivity”.
With “QVQLVESGGGLVQAGGSLRLSCAASGRTFVYTMGWYRQAPGKERELVAAIRYSGGRTYYADSVKGRFTISRDNAQNTVYLQMNSLKPEDTAVYYCAARNYATGVRYDYWGQVTQVTVSS” the “polyreactivity (PSR sort gate)” value was “high polyreactivity”.
For “QVQLVESGGGLVQAGGSLRLSCAASGRTFVYYAMAWYRQAPGKERELVAAISRTGVNTYYADSVKGRFTISRDNAKNTVYLQMNSQKPEDTAVYYCNKVYRADRSSVPYEYWGQGTQVTVSS”, the “polyreactivity (PSR sort gate)” value was “high polyreactivity”.
For “QVQLVESGGGLVQAGGSLRLSCAASGRTFVYYAMGWYRQAPGKEREFVATITSSGGSTYYADSVKGRFTISRDNAKNTVYLQMNSLKPEDTAVYYCNADSVSSPPYYDYWGQGTQVTVSS”, the “polyreactivity (PSR sort gate)” value was “high polyreactivity”.
In the case of “QVQLVESGGGLVQAGGSLRLSCAASGRTFVYYAMGWYRQAPGKERELVAAIRSGGSTNYADSVKGRFTISRDNAKNTVYLQMNSLKPEDTAVYYCNAVHYYYYKGDYWGQGTQVTVSS”, the “polyreactivity (PSR sort gate)” value is reported as “high polyreactivity”.
For “QVQLVESGGGLVQAGGSLRLSCAASGRTFVYYAMGWYRQAPGKERELVAAISGSGGSTYYADSVKGRFTISRDNAKNTVYLQMNSLKPEDTAVYYCNVRGPGFYWNWGQSHYYGYDYWGQGTQVTVSS”, the “polyreactivity (PSR sort gate)” value was “high polyreactivity”.
For “QVQLVESGGGLVQAGGSLRLSCAASGRTFVYYAMGWYRQAPGKERELVAAITSGGNTYYADSVKGRFTISRDNAKNTDYLQMNSLKPEDTAVYYCAAKRRRSFDYWGQGTQVTVSS”, the “polyreactivity (PSR sort gate)” value was “high polyreactivity”.
